{"source": "the DeepSol protein solubility set", "data": [{"experiment": "soluble on expression in E. coli; label from the status in PepcDB or PDB records", "values": [{"sequence": "MHFETVIGLEVHVELKTDSKMFSPSPAHFGAEPNSNTNVIDLAYPGVLPVVNKRAVDWAMRAAMALNMEIATESKFDRKNYFYPDNPKAYQISQFDQPIGENGYIDIEVDGETKRIGITRLHMEEDAGKSTHKGEYSLVDLNRQGTPLIEIVSEPDIRSPKEAYAYLEKLRSIIQYTGVSDVKMEEGSLRCDANISLRPYGQEKFGTKAELKNLNSFNYVRKGLEYEEKRQEEELLNGGEIGQETRRFDESTGKTILMRVKEGSDDYRYFPEPDIVPLYIDDAWKERVRQTIPELPDERKAKYVNELGLPAYDAHVLTLTKEMSDFFESTIEHGADVKLTSNWLMGGVNEYLNKNQVELLDTKLTPENLAGMIKLIEDGTMSSKIAKKVFPELAAKGGNAKQIMEDNGLVQISDEATLLKFVNEALDNNEQSVEDYKNGKGKAMGFLVGQIMKASKGQANPQLVNQLLKQELDKRLEHHHHHH", "soluble on expression in E. coli": "soluble"}, {"sequence": "MQVASRVKARRLEMNLTQEGIALRAGMKLPTYRRFERTGEISFRGLLQIGFALNALQDFALLFDQRLYQTLDEVLAEQQPKRKRGSKK", "soluble on expression in E. coli": "not soluble"}, {"sequence": "MIELEGVPELIDPVMVAAFEGWNDAGDAASTAVAHLDREWKGEVFAALDAEDYYDFQVNRPTVWLDGGVRKITWPTTRLSVVRVGGEKPRDLVLVRGIEPSMRWRSFCNELLAFAHELGVELVVVLGALLGDTPHTRPVPVSGVTSDPDLARTMDLEETKYEGPTGIVGILQEACTHAGVPAVSLWAAVPHYVSQPPNPKATLALLNRLEDLIDVRIPLGELPEDARAWQVGVDQLAAEDSEVAEYVQSLEEARDTAELPEASGEAIAREFERYLRRRDGGGPAAGGHATADGSDGTSYLRDAPGGRTRPPKPPKPEAEDDGPADEGSDDSSED", "soluble on expression in E. coli": "not soluble"}, {"sequence": "MGSDKIHHHHHHMSTVESALTRRIMGIETEYGLTFVDGDSKKLRPDEIARRMFRPIVEKYSSSNIFIPNGSRLYLDVGSHPEYATAECDNLTQLINFEKAGDVIADRMAVDAEESLAKEDIAGQVYLFKNNVDSVGNSYGCHENYLVGRSMPLKALGKRLMPFLITRQLICGAGRIHHPNPLDKGESFPLGYCISQRSDHVWEGVSSATTRSRPIINTRDEPHADSHSYRRLHVIVGDANMAEPSIALKVGSTLLVLEMIEADFGLPSLELANDIASIREISRDATGSTLLSLKDGTTMTALQIQQVVFEHASKWLEQRPEPEFSGTSNTEMARVLDLWGRMLKAIESGDFSEVDTEIDWVIKKKLIDRFIQRGNLGLDDPKLAQVDLTYHDIRPGRGLFSVLQSRGMIKRWTTDEAILAAVDTAPDTTRAHLRGRILKAADTLGVPVTVDWMRHKVNRPEPQSVELGDPFSAVNSEVDQLIEYMTVHAESYRS", "soluble on expression in E. coli": "not soluble"}, {"sequence": "MSLTMPVNTIMGLFAKSPIKPLQRHVVCVNECCSHLINFFEVCNKGDWEKAGEIRAQISHLEKEADVLKREIRLKLPRGLFMPVDRSDMLELLTQQDKLANLAKDIAGRVYGRQLVIPEPLQENFIAYVRRCLDAANQAQNVINELDELLETGFKGREVTLVAEMIHQLDVIEDDTDSMQIRLRQQLMAIESKMNPIDVMFLYKILEWVGGIADQAQRVGARLELMLSRSEGHHHHHH", "soluble on expression in E. coli": "soluble"}, {"sequence": "MVNFFRLNLSSNQAAAVTVSETAELPEALEQLGLSNSRPVLVIVGGASQTSEADFLRIQSLFVEVLAPIAQSLGAYVVDGGTDAGVMRLMGDARSQINGQFPLIGVAPTAKVILPNQTTILADDATPLEPHHSHFVLIPGSKWGDESPWIVKVATLLANGLPSITVLINGGEISFIDALNSVIAGRLVIVIAGSGRTADKIASALRGYATDERATELAASDHIQTIDLEAAPEELIDTMTNLLLNLEHHHHHH", "soluble on expression in E. coli": "not soluble"}, {"sequence": "MSFRETFLNNKFKFACRDSFLIEYYLEECYMSKKIINVVAAAIEKDGKIFCAQRPEGKSLGGYWEFPGGKLKEGESPEEALIREIYEELNSKIEIISFVNEASYDYDFGTVVMKTFHAKLVCGNLDLLEHQDSVWLEPSRLKTLNWAPVDRPAVELLSKEGHHHHHH", "soluble on expression in E. coli": "soluble"}, {"sequence": "MPDLMHSELTMSGPEQSLLAGALLGAGLPADAHRHLELAGRDYQSEALAEQHLREAHLLAPDHAAVLIGLYRFYFYKGRLGEALEVAQACLCKAARDNGLASDWRKVRRGDAEFSSYSAVLPRFYLFALKAYAYLQMRLGQLDEGHAAVEKLLELDPTDKVGAAVLLDVWRRIGLEHHHHHH", "soluble on expression in E. coli": "not soluble"}, {"sequence": "MTQISERLLVQAHLDAKQPNPLTAEQEAEYRAAIAAELKAQNAVLVAHYYCDPVIQALAEETGGCVSDSLEMARFGKNHPAETVIVAGVRFMGETAKILTPEKRVLMPTLEATCSLDLGCPVEEFSAFCDQHPERTVVVYANTSAAVKARADWVVTSSCALEIVESLMDNGETIIWGPDQHLGRYIQKQTGADMLLWDGACIVHEEFKSRQLADMKALYPDAAILVHPESPEAVIELADAVGSTSQLIKAAQTLPNKTFIVATDRGIFYKMQQLCPDKEFVEAPTAGNGAACRSCAHCPWMAMNTLERVLDCLRNGTNEIFVDPALVPKAIKPLNRMLDFTQAARLKLSGNALEHHHHHH", "soluble on expression in E. coli": "not soluble"}, {"sequence": "MGSDKIHHHHHHMHPKNAWYVACTADEVADKPLGRQICNEKMVFYRDQNQQVVAVEDFCPHRGAPLSLGYVENGQLVCGYHGLVMGGDGKTASMPGQRVRGFPCNKTFAAIERYGFIWVWPGEREKADPALIHHLEWAVSDEWAYGGGLFHIQCDYRLMIDNLMDLTHETYVHASSIGQKEIDEAPPVTTVEGEEVITARHMENIMPPPFWKMALRGNNLADDVPVDRWQICRFTPPSHVLIEVGVAHAGKGGYHAPHEFKASSIVVDFITPETDTSIWYFWGMARNFKPADEQLTATIREGQHKIFSEDLEMLERQQLNLLQHPHRNLLKLNIDAGGVQSRKILERLIAAEQADTADQIPVAAVK", "soluble on expression in E. coli": "not soluble"}, {"sequence": "MDVLIIGGGEAGLVAGCRALTMGQKVILVEKNGYLGGATILNGSNVVGTGSDVAAQIFDNNHDTPEMLAQDVARESLETNYPALTDLMVHNIGPAIDFISKFADLHYQKAQTQTPEHSINRQIELPSASSYEFIQKVSKAFAAAGGQIMLDTRVEKLMLDNDKKLRGVIAAQKDQTVNIKARSVVLAAGGHGANQKMRGTESEGIDYYGPMTSTGDAYQFNGDLDLQTHDLGWYKLYPHGVEVEPGVAKLTTYASKQATDMGAIYVNSKGDRIVNESNVYTTFRNAILKQADKVAYLVMDERTWKKVYDLLILHDFTPEEIKSFFENKGKRPVFVKGSLESAAEQAGIVVDELVQTVKNYQGYVQDGHDHDFGRDPKYLHQFEGETFYIIEQRDRFATTLGGYSVDADNLQLVTTKNAPVANYFGAGEIIGGANGHDSMPSMMNTWGISSGYVAGAAASENAQRQATAGAAALEHHHHHH", "soluble on expression in E. coli": "not soluble"}, {"sequence": "MLTKGWDTISIVRQDSVNSDLAASWNSLDHEFSYTSDEGYACHGVFDCWSVINGGGGRLLRLRMPIRSGFFEASGTSRSLAGAVAIIEVTLSLLPQGNGQVQLKSAFLHKAGATQPLQGDEGGWLRGITLQDPDGSLGPFASVVLDCICNYLVEHPLQFTHTFATINFSKATAPEWARPRKCTYAYLDSGFLAIMAVCTERDISGLPLDIDVSGISQGGQSSYVLSPRMVLEHLVLPGLLQLYQGATAQDYRLDNTQMVNIPTLRMKAIKSGAIWYTPVVFAGCNPARMLGDFITVDYKGDCDLHAGIDMKWNGWLRMKLVLDGNTINFVKQSSDFRKEVHIPWYLAWLSPIVSLITHIVAAVISDDLISAIAARGGSVKADTIDCVSWSNDTHTASSSYLAEALVINYV", "soluble on expression in E. coli": "soluble"}, {"sequence": "MQDSRPHPHDWNVSTDEAKRIQRRLASEVTERALPDGGETVAGIDVSVRDDTAQAAVSVLRLPELDVVDEATHRCEVPFPYVPGLLSFREMPAVLPALERLHSTPDVFVTDSHGAAHPRRFGLACHLGVLLDAPAIGVAKSILVGAPQGELGPEKGSRVPLVDDGETVGTVLRTRTDVNPVYVSVGHRCTLDGAADLMLDCSPRYKIPEPTRQAHKLSRAEGAAALEHHHHHH", "soluble on expression in E. coli": "soluble"}, {"sequence": "AHHHHHHGSEELIREVILKNLTLNSAGGIGLEELDDGATIPLGDKHLVFTIDGHTVKPIFFPGGDIGRLAVSGTVNDLAVMGAQPLAIASSLIIEEGFEVSELEKILKSMDETAKEVPVPIVTGDTKVVEDRIGIFVITAGVGVAERPISDAGAKVGDVVLVSGTIGDHGIALMSHREGISFETELKSDVAPIWDVVKAVADAIGWENIHAMKDPTRGGLSNALNEMARKANVGILVREEAIPIRPEVKAASEMLGISPYEVANEGKVVMIVAKEYAEEALEAMKKTEKGRDAAIIGEVIGEYRGKVILETGIGGRRFLEPPLGDPVPRVC", "soluble on expression in E. coli": "soluble"}, {"sequence": "MQSASDGFSKMIKTLLYITPDPCPECGGNLYAWRAKNKDGSDRCPPTCMECGYKARKKAEDLETEKMFNDSLKARAINYLKYSSLYTDKNLINCRFKTYKTVDTETKLAFEIANRATTEILLNKPIHMILSGKSGVGKSHLAMSTAWEVLEKSNYDKRCLFISYAELLEQLKFAMNDEQARKEITGSLMAEIKSADLVVLDDLGAELGVKQIDDRNKSTNFNNDTLNRIVEARQNKATIFTTNLTGKEMSQAYGERILSRIMSNSQGFVMKIEGTSDKRVAGILEHHHHHH", "soluble on expression in E. coli": "soluble"}, {"sequence": "MSKATFDPTRYNKSNNEPFNQVLDKHLSRRNFVKSGLGLGAMTAFAGMGLTGCGSDSSSSPIPVDPVPPLPPTKSSAKLNFTSVKGARLNAVVVPEGYSAQVLAPWGTPLNAKAAPWKADGSNTADDQANSVGMHHDGMHFFPLNQAGDDGLLCINHEYIDEIALHPNGPTVDATTGLRTIVDEVRKEINAHGVSVVRIKLTNNQWEVVYNDKHNRRFTGATVMDIAGPLAYSPLLETRYSPDGSQARGTLNNCGNGYTPWGTYLTCEENWPEYFVNRSTLTRDQIRIGISKTSSRYGWDDLAGQDEERLDEFSRFDVTPKGVSARDDYRNEANGHGYIVEIDPYNPTSRAIKRTALGRFRHEGCTFGKLSEGQPVVFYSGHDARFEYLYKFVSAAPWNPQDANSSNRLEIGDKYMNEGTLYAAKFNENGVGAWLPLTLDSQTTDGKTLGNSFASLADIILNTAGAADLLGATPMDRPEWCAVDPFTGSVYLTLTNNSKRTEANPANPRLKNNFGHIIRWDEADKETEFTWDIFVFGSPSDGNAETNLSGLTDLNQFASPDGLAFDKRGILWVQTDNGAEEVAEETNDQMLAIVPSTLLDSANKQTSVTAKNQMELKRFFVGPNDCEVTGFAISPDYKTVFANIQHPGNWPYSNNAAEVTPTGVVLRPRAATVVIRKLDGKEVAVLEHHHHHH", "soluble on expression in E. coli": "not soluble"}, {"sequence": "MAYDGLFTKKMVESLQFLTTGRVHKINQPDNDTILMVVRQNRQNHQLLLSIHPNFSRLQLTTKKYDNPFNPPMFARVFRKHLEGGIIESIKQIGNDRRIEIDIKSKDEIGDTIYRTVILEIMGKHSNLILVDENRKIIEGFKHLTPNTNHYRTVMPGFNYEAPPTQHKINPYDITGAEVLKYIDFNAGNIAKQLLNQFEGFSPLITNEIVSRRQFMTSSTLPEAFDEVMAETKLPPTPIFHKNHETGKEDFYFIKLNQFNDDTVTYDSLNDLLDRFYDARGERERVKQ", "soluble on expression in E. coli": "soluble"}, {"sequence": "MSEGPKKAGVLGSPIAHSRSPQLHLAAYRALGLHDWTYERIECGAAELPVVVGGFGPEWVGVSVTMPGKFAALRFADERTARADLVGSANTLVRTPHGWRADNTDIDGVAGALGAAAGHALVLGSGGTAPAAVVGLAELGVTDITVVARNSDKAARLVDLGTRVGVATRFCAFDSGGLADAVAAAEVLVSTIPAEVAAGYAGTLAAIPVLLDAIYDPWPTPLAAAVGSAGGRVISGLQMLLHQAFAQVEQFTGLPAPREAMTCALAALD", "soluble on expression in E. coli": "not soluble"}]}]}
